Measurements from patent US20210269542A1 (POTENZA THERAPEUTICS, published 2021).
Substitutions are numbered along the chain they refer to.

Key:
Assay in all cases: BLI (Octet): GITR-Fc mutant on anti-human Fc sensor, ABP1 Fab in solution
[1] = molecular target: T1, human GITR-Fc mutant Y61A (human, UniProt Q9Y5U5 26-162)
T1 chain: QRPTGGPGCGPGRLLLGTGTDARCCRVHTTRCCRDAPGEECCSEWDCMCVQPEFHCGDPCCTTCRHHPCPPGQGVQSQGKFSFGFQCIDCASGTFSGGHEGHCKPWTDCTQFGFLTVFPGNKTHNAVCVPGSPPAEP
Procedure: (§1) Binding was assessed by Bio-Layer Interferometry (BLI) using the Octet platform.

[2] = molecular target: T2, human GITR-Fc mutant C66D (human, UniProt Q9Y5U5 26-162)
T2 chain: T1 chain with A36Y, C41D
Procedure: as §1

[3] = molecular target: T3, human GITR-Fc mutant R59A (human, UniProt Q9Y5U5 26-162)
T3 chain: T1 chain with R34A, A36Y
Procedure: as §1

[4] = molecular target: T4, human GITR-Fc mutant P62A (human, UniProt Q9Y5U5 26-162)
T4 chain: T1 chain with A36Y, P37A
Procedure: as §1

[5] = molecular target: T5, human GITR-Fc mutant E65A (human, UniProt Q9Y5U5 26-162)
T5 chain: T1 chain with A36Y, E40A
Procedure: as §1

[6] = molecular target: T6, human GITR-Fc mutant E64A (human, UniProt Q9Y5U5 26-162)
T6 chain: T1 chain with A36Y, E39A
Procedure: as §1

[7] = molecular target: T7, human GITR-Fc mutant C67A (human, UniProt Q9Y5U5 26-162)
T7 chain: T1 chain with A36Y, C42A
Procedure: as §1

[8] = molecular target: T8, human GITR-Fc mutant R56A (human, UniProt Q9Y5U5 26-162)
T8 chain: T1 chain with R31A, A36Y
Procedure: as §1

[9] = molecular target: T9, human GITR-Fc mutant D60A (human, UniProt Q9Y5U5 26-162)
T9 chain: T1 chain with D35A, A36Y
Procedure: as §1

[10] = molecular target: T10, human GITR-Fc mutant C58A (human, UniProt Q9Y5U5 26-162)
T10 construct: Point mutation in the human GITR extracellular domain with an Fc tag
T10 chain: T1 chain with C33A, A36Y
Procedure: as §1

Measured: binding result

B1: ABP1 Fab (Fab, V domains shown)
VH: QVQLQESGPGLVKPSETLSLTCAVSGYSISSGLGWGWIRQPPGKGLEWIGGIYESGSTYYNPSLKSRVTISVDTSKNQFSLKLSSVTAADTAVYYCAHERVRGYGDYGGHHAFDIWGQGTMVTVSS
VL: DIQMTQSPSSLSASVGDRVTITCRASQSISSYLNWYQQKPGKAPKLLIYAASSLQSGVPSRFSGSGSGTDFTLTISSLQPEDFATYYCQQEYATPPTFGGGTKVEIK
binds: [4] | [5] | [8] | [9]
no binding: all other assays above
